Experimental data reported in patent US20130344077A1 (VET THERAPEUTICS, published 2013).

What was measured:
[1] = target: target antigen of mab 231 on canine lymphoma cells (canine); assay: FACS on canine lymphoma cells positive for the mab 231 antigen, FITC anti-dog IgG secondary
[2] = target: target antigen of mab 231 on canine lymphoma cells (canine); assay: FACS on canine lymphoma cells positive for the mab 231 antigen, anti-mouse IgG secondary

B1: VET118 VET218 anti-canine lymphoma antibody variant (mab 231 variable domains with canine FR4) (antibody)
light: DIQMNQSPSSLSASLGDTITITCHASQNINVWLSWYQQKPGNIPKLLIYKASNLHTGVPSRFSGSGSGTGFTLTISSLQPEDIATYYCQQGQSYPLTFGGGTHLTVLGQPKASPSVTLFPPSSEELGANKATLVCLISDFYPSGVTVAWKADGSPITQGVETTKPSKQSNNKYAASSYLSLTPDKWKSHSSFSCLVTHEGSTVEKKVAPAECS
heavy: EVKLVESGGGLVQPGGSLKLSCATSGFTFSDYYMYWVRQTPEKRLEWVAYISNGGGSTYYPDTVKGRFTISRDNAKNTLYLQMSRLKSEDTAMYYCARHGGYYAMDYWGQGTSVTVSSASTTAPSVFPLAPSCGSTSGSTVALACLVSGYFPEPVTVSWNSGSLTSGVHTFPSVLQSSGLYSLSSMVTVPSSRWPSETFTCNVAHPASKTKVDKPVPKRENGRVPRPPDCPKCPAPEMLGGPSVFIFPPKPKDTLLIARTPEVTCVVVDLDPEDPEVQISWFVDGKQMQTAKTQPREEQFNGTYRVVSVLPIGHQDWLKGKQFTCKVNNKALPSPIERTISKARGQAHQPSVYVLPPSREELSKNTVSLTCLIKDFFPPDIDVEWQSNGQQEPESKYRTTPPQLDEDGSYFLYSKLSVDKSRWQRGDTFICAVMHEALHNHYTQKSLSHSPGK
Binding (%) [1]: 27.2%

B2: murine anti-canine lymphoma monoclonal antibody mab 231 (ATCC HB-9401) (antibody, V domains shown)
VH: EVKLVESGGGLVQPGGSLKLSCATSGFTFSDYYMYWVRQTPEKRLEWVAYISNGGGSTYYPDTVKGRFTISRDNAKNTLYLQMSRLKSEDTAMYYCARHGGYYAMDYWGQGTSVTVSS
VL: DIQMNQSPSSLSASLGDTITITCHASQNINVWLSWYQQKPGNIPKLLIYKASNLHTGVPSRFSGSGSGTGFTLTISSLQPEDIATYYCQQGQSYPLTFGGGTKLEIK
Binding (%) [2]: 74.2%
